Results as given in patent US20260274985A1 (MYTHIC THERAPEUTICS, published 2026).
Where a chain is given by its changes, count along the chain named.

B1: MYT13429 (antibody, V domains shown)
VH: QVQLQQSGSELKKPGASVKVSCKASGYTFTNYGMNWVKQAPGQGLKWMGWINTYTGEPTYTDDFKHRFAFSLDTSVSTAYLQISSLKADDTAVYFCARGGFGSSYWYFDVWGQGSLVTVSS
VL: DIQLTQSPSSLSASVGDRVSITCKASQDVHIAVAWYQQKPGKAPKLLIYSHSYRYTGVPDRFSGSGSGTDFTLTISSLQPEDFAVYYCQQHYHTPLTFGAGTKVEIK
B2: MYT13373 (antibody, V domains shown)
VH: B1 VH
VL: B1 VL with V33H, H51A, H93I
B3: MYT13378 (antibody, V domains shown)
VH: B1 VH with D63H, H66G
VL: B1 VL with H93I
B4: MYT13374 (antibody, V domains shown)
VH: B1 VH with Y32H, H66G
VL: B1 VL with H93I
B5: MYT13421 (antibody, V domains shown)
VH: B1 VH
VL: B1 VL with Q89H, H93I
B6: MYT13376 (antibody, V domains shown)
VH: B1 VH with Y60H, H66G
VL: B1 VL with H93I
B7: MYT13433 (antibody, V domains shown)
VH: B1 VH with D62H, H66G
VL: B1 VL with H30S, Y53H
B8: MYT13417 (antibody, V domains shown)
VH: B1 VH with D62H, H66G
VL: B1 VL with Q89H, H93I
B9: MYT13371 (antibody, V domains shown)
VH: B1 VH with F64H, H66G
VL: B1 VL with V33H, H51A, H93I
B10: MYT13437 (antibody, V domains shown)
VH: B1 VH
VL: B1 VL with H30S, Y53H
B11: MYT13432 (antibody, V domains shown)
VH: B1 VH with Y60H, H66G
VL: B1 VL with H30S, Y53H
B12: MYT13434 (antibody, V domains shown)
VH: B1 VH with D63H, H66G
VL: B1 VL with H30S, Y53H
B13: MYT13418 (antibody, V domains shown)
VH: B1 VH with D63H, H66G
VL: B1 VL with Q89H, H93I
B14: MYT13424 (antibody, V domains shown)
VH: B1 VH with Y60H, H66G
VL: B1 VL
B15: MYT13386 (antibody, V domains shown)
VH: B1 VH with D63H, H66G
VL: B1 VL with H51A, S52H, H93I
B16: MYT13426 (antibody, V domains shown)
VH: B1 VH with D63H, H66G
VL: B1 VL
B17: MYT13368 (antibody, V domains shown)
VH: B1 VH with Y60H, H66G
VL: B1 VL with V33H, H51A, H93I
B18: MYT13366 (antibody, V domains shown)
VH: B1 VH with Y32H, H66G
VL: B1 VL with V33H, H51A, H93I

biological target: T1, TROP2 on TROP2-positive NCI-H1975 cells (human, UniProt P09758 27-323); test: cell-based or functional assay
T1 sequence: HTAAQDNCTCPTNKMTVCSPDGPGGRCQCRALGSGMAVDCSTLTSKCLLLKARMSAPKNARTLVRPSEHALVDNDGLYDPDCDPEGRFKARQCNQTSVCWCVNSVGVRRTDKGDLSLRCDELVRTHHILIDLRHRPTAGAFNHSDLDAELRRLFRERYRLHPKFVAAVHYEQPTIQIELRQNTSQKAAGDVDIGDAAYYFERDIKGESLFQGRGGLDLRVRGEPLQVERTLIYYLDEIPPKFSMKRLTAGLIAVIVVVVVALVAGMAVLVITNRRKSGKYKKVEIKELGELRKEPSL

First: B1
Second: B2
The “FOW H1975 (10 nM)” value of the first is higher: 1.83 fold over parent antibody for the first, 1.6 fold over parent antibody for the second.

Going from B3 to B4, the “FOW H1975 (10 nM)” value falls from 1.4 fold over parent antibody to 1.37 fold over parent antibody.

B5 and B6 are the same in “FOW H1975 (10 nM)” value: 1.42 fold over parent antibody for the first, 1.42 fold over parent antibody for the second.

Compared with B7, B8 is lower in “FOW H1975 (10 nM)” value: 1.82 fold over parent antibody for the first, 1.76 fold over parent antibody for the second.

Compared with B9, B10 is lower in “FOW H1975 (10 nM)” value: 1.51 fold over parent antibody for the first, 1.49 fold over parent antibody for the second.

First: B11
Second: B12
The “FOW H1975 (10 nM)” value of the first is lower: 1.4 fold over parent antibody for the first, 1.46 fold over parent antibody for the second.

First: B13
Second: B14
The “FOW H1975 (10 nM)” value of the first is lower: 1.51 fold over parent antibody for the first, 1.71 fold over parent antibody for the second.

B15 and B16 are the same in “FOW H1975 (10 nM)” value: 1.71 fold over parent antibody for the first, 1.71 fold over parent antibody for the second.

Going from B17 to B18, the “FOW H1975 (10 nM)” value falls from 1.43 fold over parent antibody to 1.35 fold over parent antibody.
